Experimental data taken from patent US9526737B2, “Oxysterols for activation of hedgehog signaling, osteoinduction, antiadipogenesis, and Wnt signaling” (THE REGENTS OF THE UNIVERSITY OF CALIFORNIA, priority 2007, dated 2016).
Where two headings read alike, the source gives them in different places. One block for each molecule: values may come before it.

What was measured:
[1] = system: M2-10B4 marrow stromal cells; experiment: 45Ca incorporation assay (matrix mineralization); format: cell-based
Description: ^45Ca incorporation assay as a measure of matrix mineralization in cell monolayers was performed as previously described (45).
^45Ca incorporation assay (see Example above) was used to measure mineralization in M2 cells pre-treated with 1 μg/ml Dkk-1 or vehicle for 2 h, and then treated with control vehicle or 2.5 μM SS 12 days (See FIG. 2D).
^45Ca incorporation assay was used to measure mineralization in M2 cells pre-treated with various doses of LY, 1 μM Wm, or vehicle for 2 h, and then treated with 5 μM SS or control vehicle for 14 days (See FIG. 7C).
M2-10B4 cells were treated for 14 days with control vehicle (C) or various concentrations (μM) of oxysterols as indicated. SS refers to 20S-hydroxycholesterol+22S-hydroxycholesterol in combination. After 12 days with refeeding every 5th day, ^45Ca was added and on day 14, ^45Ca incorporation was measured (See FIG. 18).

[2] = system: bone sialoprotein (BSP) mRNA expression; experiment: Q-RT-PCR for bone sialoprotein (BSP) mRNA expression; format: cell-based; conditions: M2-10B4 cells
Description: (§1) Total RNA was extracted with the RNA isolation kit from Stratagene (La Jolla, Calif.) according to the manufacturer's instructions. RNA was DNase-treated using the DNA-free kit from Ambion, Inc. (Austin, Tex.). 3 μg of RNA was reverse-transcribed using reverse transcriptase from Stratagene (La Jolla, Calif.) to make single stranded cDNA. The cDNAs were mixed with Qi SYBR Green Supermix from Bio-Rad Laboratories (Hercules, Calif.) for quantitative RT-PCR using a Bio-Rad I-cycler IQ quantitative thermocycler. All PCR samples were prepared in triplicate or quadruplicate. Each sample was added to duplicate wells of a 96-well plate. After 40 cycles of PCR, melt curves were analyzed in order to ensure primer specificity, and the identity of all PCR products were verified by sequencing and comparing with the complete mRNA sequence obtained from PubMed's GenBank. Fold changes in gene expression were calculated using the ΔΔCt method (14). […]
M2-10B4 cells were treated with control vehicle (C) or various doses (μM) of oxysterols (Oxy34 or Oxy49) as indicated. […] After 6 days of treatments, mRNA was extracted from cells and analyzed by Q-RT-PCR for BSP and GAPDH expression (See FIG. 17).
After 48 hours of treatment, RNA was isolated and analyzed for BSP expression by Q-RT-PCR as a measure of osteogenic differentiation (See FIG. 10). […]

marrow stromal cells = experiment: Osteoinductive properties (osteoblast differentiation markers: ALP activity, osteocalcin mRNA, mineralization); format: cell-based; conditions: induction of osteoblast differentiation markers
Excerpt: Oxysterols discussed in this application include those designated as Oxy22, Oxy26, Oxy27, Oxy28, Oxy39, Oxy40, Oxy41, Oxy42, Oxy48, Oxy49, Oxy20, Oxy34, Oxy36, Oxy38, Oxy50, Oxy51, Oxy52, and Oxy53. At least the following oxysterols have been identified as osteoinductive: Oxy22, Oxy26, Oxy27, Oxy28, Oxy39, Oxy40, Oxy41, Oxy42, Oxy48, Oxy49, Oxy50, Oxy51, Oxy52, and Oxy53. The osteoinductive properties of these oxysterols is shown by their ability to induce the expression of various osteoblast differentiation markers, including alkaline phosphatase activity, osteocalcin mRNA expression, and mineralization. These oxysterols are activators of the hedgehog signaling pathway.

[3] = system: M2-10B4 marrow stromal cells; experiment: Alkaline phosphatase (ALP) activity assay
Description: The protocol is a modification of alkaline phosphatase assay kit from Sigma. Cells are cultured in 24-well tissue culture plates. After treatments with test agents, cells are rinsed twice with PBS and scraped into 200 ml of lysis buffer (0.2% NP-40 in 1 mM MgCl2) and sonicated for 10 seconds. Next, 1 ml of reaction mixture is added to each well. Reaction mixture is 221 alkaline buffer (Sigma): stock substrate solution (1:1). Stock substrate solution is prepared by dissolving 40 mg of Sigma 104 phosphatase substrate in 10 ml of ddH2O. After addition of reaction mixture to lysed cells, incubation is performed for 30 minutes at 37 C. […] The reaction is stopped by the addition of 12 ml of 1N NaOH to each well, and absorbance is determined at 405 nm. Alkaline phosphatase activity is calculated using p-nitrophenol as a standard, according to Sigma kit's instructions. Results are normalized to total protein in each well determined using the Bio-Rad protein assay solution (Bio-Rad Laboratories).
M2-10B4 marrow stromal cells were treated with oxysterols at various doses for 3 days after which they were collected and analyzed by calorimetric assay for alkaline phosphatase activity (a marker of osteoblastic differentiation) (Table 1); the alkaline phosphatase assay described above was used.
M2-10B4 marrow stromal cells were treated with oxysterols at various doses for 3 days after which they were collected and analyzed by colorimetric assay for alkaline phosphatase activity (a marker of osteoblastic differentiation) (Table 2); the alkaline phosphatase assay described above was used.
M2-10B4 bone marrow stromal cells were treated in culture with control vehicle (C) or various oxysterol (Oxy) molecules as indicated at either 1.25 (1) or 2.5 (2) μM concentrations. After 3 days of treatment, alkaline phosphatase activity as a measure of early osteogenic differentiation of cells was measured in whole cell lysates (See FIG. 9 and Table 3); the alkaline phosphatase assay described above was used.

[4] = system: hedgehog signaling pathway; experiment: Hedgehog signaling pathway activation (8X-Gli reporter, Gli 1 and Patched Q-RT-PCR, cyclopamine inhibition); format: cell-based; conditions: M2 cells
Description: M2-10B4 bone marrow stromal cells were transfected with an 8XGli luciferase reporter or the empty vector (pGL3b). Cells were subsequently treated with control vehicle, 5 μM Oxy49, or 400 ng/ml recombinant human sonic hedgehog (Shh) as positive control. After 48 hours of treatments, reporter luciferase activity was measured and normalized to Renilla luciferase activity (See FIG. 14). […] M2-10B4 bone marrow stromal cells were transfected with an 8XGli luciferase reporter or the empty vector (pGL3b). Cells were subsequently treated with control vehicle, 5 μM Oxy34, or 400 ng/ml recombinant human sonic hedgehog (Shh) as positive control. After 48 hours of treatments, reporter luciferase activity was measured and normalized to Renilla luciferase activity (See FIG. 15). […] After 48 hours of treatments, mRNA was extracted from cells and analyzed by Q-RT-PCR for expression of hedgehog target genes Gli 1 and Patched (See FIGS. 16A and 16B). […] Luciferase reporter activity using a reporter construct with 8X-Gli binding sites • 2. Q-RT-PCR analysis of the induction of hedgehog pathway target gene expression Gli 1 and Patched • 3.

[5] = system: osteocalcin (OCN) mRNA expression; experiment: Q-RT-PCR for osteocalcin (OCN) mRNA expression; format: cell-based; conditions: M2 cells pre-treated 2 h with inhibitor, then SS
Description: as §1, with “(14). All primers were designed using the Beacon Designer software from Bio-Rad Laboratories (Hercules, Calif.).” for “(14).”
M2 cells were pre-treated with vehicle or 1 μg/ml Dkk-1 for 2 h followed by treatment with control vehicle or 5 μM SS for 6 days. RNA was isolated and analyzed by Q-RT-PCR for OCN expression (See FIG. 2E).
RNA was analyzed for OCN expression by Q-RT-PCR and normalized to GAPDH (p<0.01 for Control versus SS and for SS versus SS+LY and SS+Wm) (See FIG. 7B).

[6] = system: Runx2 DNA binding activity; experiment: Runx2 DNA binding activity by EMSA analysis; format: cell-based; conditions: M2 cells
[7] = system: Naked Cuticle 2 (Nkd2) mRNA expression; format: cell-based; conditions: M2 cells pre-treated 2 h with inhibitor, then 5 μM SS for 48 h
Description: (§2) Total RNA was extracted with the RNA isolation kit from Stratagene (La Jolla, Calif.) according to the manufacturer's instructions. RNA was DNase-treated using the DNA-free kit from Ambion, Inc. (Austin, Tex.). 3 μg of RNA was reverse-transcribed using reverse transcriptase from Stratagene (La Jolla, Calif.) to make single stranded cDNA. The cDNAs were mixed with Qi SYBR Green Supermix from Bio-Rad Laboratories (Hercules, Calif.) for quantitative RT-PCR using a Bio-Rad I-cycler IQ quantitative thermocycler. All PCR samples were prepared in triplicate or quadruplicate. Each sample was added to duplicate wells of a 96-well plate. After 40 cycles of PCR, melt curves were analyzed in order to ensure primer specificity, and the identity of all PCR products were verified by sequencing and comparing with the complete mRNA sequence obtained from PubMed's GenBank. Fold changes in gene expression were calculated using the ΔΔCt method (14). All primers were designed using the Beacon Designer software from Bio-Rad Laboratories (Hercules, Calif.). Primers used are as follows: OCN (5′-[…]-3′ (SEQ ID NO: 1) and 5′-[…]-3′ (SEQ ID NO: 2)), Axin2(5′[…]-3′ (SEQ ID NO: 3) and 5′-[…]-3′ (SEQ ID NO: 4)), Cyclin D1(5′-[…]-3′ (SEQ ID NO: 5) and 5′-[…]-3′ (SEQ ID NO: 6)), NKD2 (5′-[…]-3′ (SEQ ID NO: 7) and 5′[…]-3′ (SEQ ID NO: 8)), WIF-1 (5′-[…]-3′ (SEQ ID NO: 9) and 5′-[…]-3′ (SEQ ID NO: 10)), and GAPDH (5′-[…]-3′ (SEQ ID NO: 11) and 5′-[…]-3′ (SEQ ID NO: 12)).
(§3) M2 cells were treated with 5 μM SS, 200 ng/ml Shh, or control vehicle for 48 h. RNA was isolated and analyzed by Q-RT-PCR for Nkd2 (E) and WIF-1 (F) expression (See FIGS. 4E and 4F).
(§4) M2 cells were pre-treated for 2 h with vehicle or cyclopamine (Cyc) at the concentrations indicated. Next, cells were treated with 5 μM SS or control vehicle for 48 h. RNA was isolated and analyzed for Nkd2 (A) and WIF-1 (B) expression by Q-RT-PCR (See FIGS. 5A and 5B).
(§5) M2 cells were pre-treated for 2 h with Dkk-1 or vehicle. Next, cells were treated with 5 μM SS or control vehicle for 48 h. RNA was isolated and analyzed for Nkd2 (C), Wif-1 (D), and Ptch (E) expression (See FIGS. 5C-5E).
(§6) M2 cells were pre-treated for 2 h with 5 μM LY, 2.5 μM Wm, or vehicle followed by treatment with 5 μM SS or control vehicle for 48 h. RNA was isolated and analyzed for Nkd2 (FIG. 7E) and Wif-1 (FIG. 7F) expression.

[8] = system: Wnt Inhibitory factor-1 (Wif-1) mRNA expression; format: cell-based; conditions: M2 cells pre-treated 2 h with inhibitor, then 5 μM SS for 48 h
Description: as §2, §3, §4, §5, §6

[9] = system: Patched (Ptch) mRNA expression; experiment: Q-RT-PCR for Patched (Ptch) mRNA expression; format: cell-based; conditions: M2 cells pre-treated 2 h with inhibitor, then 5 μM SS for 48 h
Description: as §1, with “(14). All primers were designed using the Beacon Designer software from Bio-Rad Laboratories (Hercules, Calif.).” for “(14).”
M2 cells were pre-treated for 2 h with Dkk-1 or vehicle. […] RNA was isolated and analyzed for Nkd2 (C), Wif-1 (D), and Ptch (E) expression (See FIGS. 5C-5E).

[10] = M210B4, 72 h, read-out: Fold Induction in alkaline phosphatase activity compared to control untreated cells
[11] = M210B4, 72 h, read-out: Fold Induction in alkaline phosphatase activity over control untreated cells

Molecule: C=C(C)CCC[C@](C)(O)[C@H]1CC[C@H]2[C@@H]3C[C@H](O)[C@H]4C[C@@H](O)CC[C@]4(C)[C@H]3CC[C@@]21C [Oxy49, (3S,5S,6S,8R,9S,10R,13S,14S,17S)-17-((S)-2-Hydroxy-6-methylhept-6-en-2-yl)-10,13-dimethylhexadecahydro-1H-cyclopenta[a]phenanthrene-3,6-diol]
Mineralization (45Ca incorporation) ([1]; M2-10B4 cells treated for 14 days): increased mineralization
BSP expression [2]: induce BSP expression
Osteoinductive property (marrow stromal cells): osteoinductive
fold induction at 2.5 µM [3, 10]: 170
fold induction at 5 µM [3, 10]: 204
fold induction at 1.25 µM [3, 11]: 46
fold induction at 2.5 µM [3, 11]: 68

Molecule: COC[C@H]1OC(=O)c2coc3c2[C@@]1(C)C1=C(C3=O)[C@@H]2CCC(=O)[C@@]2(C)C[C@H]1OC(C)=O [Wm, wortmannin]
Inhibition of oxysterol-induced hedgehog pathway activation [4]: did not inhibit

Inhibition of oxysterol-induced Runx2 DNA binding activity [6]: did not inhibit
B1: Dkk-1: recombinant mouse Dickkopf related protein 1; LRP5/6 inhibitor, Wnt signaling inhibitor (protein, UniProt O54908 32-272, looked up)
Dickkopf-related protein 1: TLNSVLINSNAIKNLPPPLGGAGGQPGSAVSVAPGVLYEGGNKYQTLDNYQPYPCAEDEECGSDEYCSSPSRGAAGVGGVQICLACRKRRKRCMRHAMCCPGNYCKNGICMPSDHSHFPRGEIEESIIENLGNDHNAAAGDGYPRRTTLTSKIYHTKGQEGSVCLRSSDCAAGLCCARHFWSKICKPVLKEGQVCTKHKRKGSHGLEIFQRCYCGEGLACRIQKDHHQASNSSRLHTCQRH
Inhibition of oxysterol-induced mineralization (45Ca incorporation) ([1]; M2 cells pre-treated 2 h with inhibitor, then SS for 12-14 days): Complete and below baseline level inhibition
Inhibition of oxysterol (SS)-induced OCN mRNA expression [5]: did not inhibit
Inhibition of oxysterol-induced Nkd2 expression [7]: almost completely inhibited
Inhibition of oxysterol-induced Wif-1 expression [8]: only minimally inhibited
Inhibition of oxysterol-induced Patched (Ptch) mRNA expression [9]: did not inhibit
Inhibition of BMP-2-induced ALP activity ([3]; M2 cells pre-treated 2 h with 1 or 2 μg/ml Dkk-1, then 50 ng/ml BMP-2 for 3 days): only significantly inhibited by using the higher concentration
Inhibition of Shh-induced ALP activity ([3]; M2 cells pre-treated 2 h with inhibitor, then 200 ng/ml Shh for 3 days): partially inhibited
Inhibition of oxysterol-induced ALP activity ([3]; M2 cells pre-treated 2 h with inhibitor, then 2.5 μM SS for 3 days): partial but significant inhibition
ALP activity, agent alone ([3]; M2 cells, Dkk-1 1 or 2 μg/ml without oxysterol): no observed effect
